As usually defined, the Tm is the temperature at the midpoint of the melting transition.

This passage reports Tm results from FireProtDB (doi:10.1073/pnas.0910421107).

The conditions of the series: Escherichia coli (strain K12), pH 7.6, Thermal, MOPS 25 mM, Potassium chloride 100 mM, whole UniProt chain shown.

B1: Ribose import binding protein RbsB wild type, P02925 (protein)
chain: MNMKKLATLVSAVALSATVSANAMAKDTIALVVSTLNNPFFVSLKDGAQKEADKLGYNLVVLDSQNNPAKELANVQDLTVRGTKILLINPTDSDAVGNAVKMANQANIPVITLDRQATKGEVVSHIASDNVLGGKIAGDYIAKKAGEGAKVIELQGIAGTSAARERGEGFQQAVAAHKFNVLASQPADFDRIKGLNVMQNLLTAHPDVQAVFAQNDEMALGALRALQTAGKSDVMVVGFDGTPDGEKAVNDGKLAATIAQLPDQIGAKGVETADKVLKGEKVQAKYPVDLKLVVKQ
With B1, the melting temperature (Tm) reads like this: (Activity) 62.6 °C; (Quantitative cysteine reactivity) 62.6 °C.
